T1: Mpa (Mycobacterium tuberculosis, UniProt P9WQN5)
T1 chain: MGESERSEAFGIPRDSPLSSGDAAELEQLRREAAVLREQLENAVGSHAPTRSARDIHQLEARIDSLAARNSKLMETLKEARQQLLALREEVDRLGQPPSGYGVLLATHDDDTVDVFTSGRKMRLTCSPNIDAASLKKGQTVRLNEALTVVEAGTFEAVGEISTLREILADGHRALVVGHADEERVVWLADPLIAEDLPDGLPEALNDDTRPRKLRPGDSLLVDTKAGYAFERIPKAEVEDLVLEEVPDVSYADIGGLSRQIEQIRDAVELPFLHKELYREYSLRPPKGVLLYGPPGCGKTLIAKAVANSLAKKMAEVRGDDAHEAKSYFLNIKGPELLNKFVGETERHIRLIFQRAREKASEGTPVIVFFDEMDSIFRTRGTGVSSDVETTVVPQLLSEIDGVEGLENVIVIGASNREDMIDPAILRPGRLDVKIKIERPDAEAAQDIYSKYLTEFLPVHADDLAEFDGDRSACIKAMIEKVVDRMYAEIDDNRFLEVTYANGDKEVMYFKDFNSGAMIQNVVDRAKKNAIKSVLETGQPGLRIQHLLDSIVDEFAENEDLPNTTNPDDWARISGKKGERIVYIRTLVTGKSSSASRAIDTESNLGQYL

B1: Pup (protein)
chain: MAQEQTKRGGGGGDDDDIAGSTAAGQERREKLTEETDDLLDEIDDVLEENAEDFVRAYVQKGGQ

Tests used:
[1] = target: Mpa (Mycobacterium tuberculosis) (UniProt P9WQN5); conditions: cited from earlier work
[2] = target: T1, Mpa; experiment: NMR

Row | Molecule | Kd [1] [µM] | Kd [2] [µM]
1 | Pup (from UniProt P9WHN5) | 3.5 | 
2 | B1 |  | ~28
